From article PMC6123631

Legend:
FtFur WT [1] = target: T1, FtFur WT (Francisella tularensis FSC198 (100% …, UniProt Q5NIN6 1-140)); assay: EMSA; 10 uM Mn2+; main species one dimer bound; settings: protein: recombinant; tags: none; chain copies: 4; label: 32P 5' end (EMSA)
FtFur WT [2] = target: T1, FtFur WT; assay: EMSA; settings: protein: recombinant; tags: none; chain copies: 4; label: 32P 5' end (EMSA)
FtFur WT [3] = target: T1, FtFur WT; assay: SEC-MALLS-RI; settings: protein: recombinant; tags: none; chain copies: 4; label: none (SEC-MALLS, SAXS)

B1: PfigAS (dsDNA)
DNA 1: GGGGATAATGATAACGAATATCATTATCGGG
DNA 2: CCCGATAATGATATTCGTTATCATTATCCCC
binding result (FtFur WT [1]): binds

B2: PfigAL (PfigA, 43 bp) (dsDNA)
DNA 1: GGGCTACATGATAATGATAACGAATATCATTATCGTTTATGGG
DNA 2: CCCATAAACGATAATGATATTCGTTATCATTATCATGTAGCCC
Kd (FtFur WT [2]): ~5 nM

B3: FurBox (EcFurBox) (dsDNA)
DNA 1: GGGGATAATGATAATCATTATCGGG
DNA 2: CCCGATAATGATTATCATTATCCCC
binding result (FtFur WT [3]): binds
